Target: FMRP (mouse cerebellum) (UniProt P35922)
Assay: anti-FMRP IP, Kv1.2 blot, peptide competition
Conditions: reference: no peptide (control); sites S440,S441

- other: reduction of co-IP'd Kv1.2: 75%
Substance: Kv1.2 (from UniProt P63141) 250 μM PhosKv436-457 (pS440/pS441) peptide added

— article PMC7473840, “Identification of a molecular locus for normalizing dysregulated GABA release from interneurons in the Fragile X brain” (Molecular Psychiatry, 2018)
